In the supplement of paper PMC9112550, “Optimization of the antimicrobial peptide Bac7 by deep mutational scanning” (BMC Biology, 2022):

Test system: Escherichia coli TOP10
Assay: shrunken log2 fold change of peptide-encoding DNA abundance (4.5 h post-induction vs induction); higher = less antimicrobial activity (less host growth inhibition)
Conditions: time post-induction: 4.5 h; library: site-saturation at positions 5, 18, 19, 20
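Note: peptides expressed intracellularly from a pBAD plasmid library in pooled LB shake-flask culture, induced with 0.3% L-arabinose, DNA abundance read by NGS, three biological replicates, DESeq2 with apeglm shrinkage.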

Sequence | shrunken log2 fold change
RRIRARPPRLPRPRPRPAAFPRP | 0.787
RRIRARPPRLPRPRPRPACRPRP | 0.896
RRIRARPPRLPRPRPRPACTPRP | 0.668
RRIRARPPRLPRPRPRPADRPRP | 0.256
RRIRARPPRLPRPRPRPAFQPRP | 0.174
RRIRARPPRLPRPRPRPAGIPRP | 0.156
RRIRARPPRLPRPRPRPAHPPRP | 0.653
RRIRARPPRLPRPRPRPAHWPRP | 0.535
RRIRARPPRLPRPRPRPAIYPRP | -0.0399
RRIRARPPRLPRPRPRPAKCPRP | -6.11e-05
RRIRARPPRLPRPRPRPAKRPRP | 0.47
RRIRARPPRLPRPRPRPAKTPRP | 0.179
RRIRARPPRLPRPRPRPAMCPRP | 0.303
RRIRARPPRLPRPRPRPAMMPRP | 0.511
RRIRARPPRLPRPRPRPAMVPRP | 0.109
RRIRARPPRLPRPRPRPANEPRP | 0.173
RRIRARPPRLPRPRPRPAPCPRP | 0.638
RRIRARPPRLPRPRPRPAPGPRP | 0.972
RRIRARPPRLPRPRPRPAPTPRP | 0.838
RRIRARPPRLPRPRPRPARGPRP | 0.774
RRIRARPPRLPRPRPRPATDPRP | 1.53
RRIRARPPRLPRPRPRPAVSPRP | 0.431
RRIRARPPRLPRPRPRPAVWPRP | 0.64
RRIRARPPRLPRPRPRPAWGPRP | 0.616
RRIRARPPRLPRPRPRPAWHPRP | 0.159
RRIRARPPRLPRPRPRPAWVPRP | 0.235
RRIRARPPRLPRPRPRPAYHPRP | -0.0226

Sequence | shrunken log2 fold change
RRIRARPPRLPRPRPRPAYWPRP | 0.393
RRIRARPPRLPRPRPRPCECPRP | 0.633
RRIRARPPRLPRPRPRPCEPPRP | 0.39
RRIRARPPRLPRPRPRPCFRPRP | -0.0247
RRIRARPPRLPRPRPRPCGFPRP | 0.111
RRIRARPPRLPRPRPRPCGNPRP | 0.0115
RRIRARPPRLPRPRPRPCGQPRP | 0.25
RRIRARPPRLPRPRPRPCHHPRP | -0.0114
RRIRARPPRLPRPRPRPCIFPRP | 0.131
RRIRARPPRLPRPRPRPCKFPRP | -0.138
RRIRARPPRLPRPRPRPCKYPRP | -0.201
RRIRARPPRLPRPRPRPCMCPRP | 0.118
RRIRARPPRLPRPRPRPCMLPRP | -0.0396
RRIRARPPRLPRPRPRPCNFPRP | -0.478
RRIRARPPRLPRPRPRPCPMPRP | -0.0338
RRIRARPPRLPRPRPRPCRRPRP | -0.085
RRIRARPPRLPRPRPRPCVEPRP | 0.317
RRIRARPPRLPRPRPRPDAFPRP | 0.879
RRIRARPPRLPRPRPRPDCDPRP | 0.214
RRIRARPPRLPRPRPRPDCSPRP | 0.958
RRIRARPPRLPRPRPRPDDGPRP | -0.078
RRIRARPPRLPRPRPRPDDQPRP | 1.41
RRIRARPPRLPRPRPRPDECPRP | -0.0409
RRIRARPPRLPRPRPRPDFGPRP | 0.106
RRIRARPPRLPRPRPRPDGQPRP | 0.0234
RRIRARPPRLPRPRPRPDHIPRP | -0.126
RRIRARPPRLPRPRPRPDHWPRP | 0.0446
